What was measured:
[1] = biological target: GLP-1R on cAMP Hunter CHO cells (UniProt P43220)
[2] = biological target: human GLP-1R on HEK293-GLP-1R-CRE cells (human) (UniProt P43220)
Sequence of human GLP-1R on HEK293-GLP-1R-CRE cells (human) (P43220 24-463): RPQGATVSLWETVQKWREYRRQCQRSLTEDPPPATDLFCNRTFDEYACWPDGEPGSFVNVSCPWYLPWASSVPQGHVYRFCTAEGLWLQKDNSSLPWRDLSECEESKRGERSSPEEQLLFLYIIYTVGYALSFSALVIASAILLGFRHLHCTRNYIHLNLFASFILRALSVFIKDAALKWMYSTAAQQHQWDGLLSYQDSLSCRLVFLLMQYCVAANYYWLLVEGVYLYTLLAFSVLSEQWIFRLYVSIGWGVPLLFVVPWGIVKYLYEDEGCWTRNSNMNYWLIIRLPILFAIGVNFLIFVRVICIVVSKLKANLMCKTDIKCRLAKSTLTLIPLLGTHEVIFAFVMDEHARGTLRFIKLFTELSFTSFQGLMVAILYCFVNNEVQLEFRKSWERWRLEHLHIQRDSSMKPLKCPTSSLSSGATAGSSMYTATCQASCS

Sequence of GLP-1R on cAMP Hunter CHO cells (P43220 24-463): as above

| Substance | EC50, intracellular cAMP (HTRF) assay in cAMP Hunter CHO cells expressing GLP-1R [1] [nM] | EC50, CRE luciferase reporter assay in HEK293-GLP-1R-CRE cells [2] [nM] |
| --- | --- | --- |
| Semaglutide (peptide) | 0.21 | 0.024 |
| exenatide (Ex-4) (from UniProt P26349 48-87) (peptide) | 0.111 | 0.037 |

Source: publication PMC7321126, “Recombinant Expression and Stapling of a Novel Long-Acting GLP-1R Peptide Agonist” (Molecules, 2020)
